This note sets out measurements from paper doi:10.1101/2022.01.21.477187 (bioRxiv, 2022).

Series [1] concerns the molecule itself. The experiment in a line: native gel or EMSA; native PAGE of purified CENP-E483; species at ~100 kDa and ~230 kDa. For orientation: In EMSA bound probe runs differently from free probe, usually more slowly.
Series [2] concerns the molecule itself. The experiment in a line: single-molecule photobleaching steps and initial intensity (TIRF); 0.5 nM fluorescent motor adsorbed non-specifically on silanised coverslips, BRB80 with oxygen scavengers; bleaching steps counted by hand; K560-2mNG as intensity reference.

B1: human CENP-E483 followed by two tandem mNeonGreen fluorophores (domain or fragment, UniProt Q02224 1-483, looked up)
chain: MAEEGAVAVCVRVRPLNSREESLGETAQVYWKTDNNVIYQVDGSKSFNFDRVFHGNETTKNVYEEIAAPIIDSAIQGYNGTIFAYGQTASGKTYTMMGSEDHLGVIPRAIHDIFQKIKKFPDREFLLRVSYMEIYNETITDLLCGTQKMKPLIIREDVNRNVYVADLTEEVVYTSEMALKWITKGEKSRHYGETKMNQRSSRSHTIFRMILESREKGEPSNCEGSVKVSHLNLVDLAGSERAAQTGAAGVRLKEGCNINRSLFILGQVIKKLSDGQVGGFINYRDSKLTRILQNSLGGNAKTRIICTITPVSFDETLTALQFASTAKYMKNTPYVNEVSTDEALLKRYRKEIMDLKKQLEEVSLETRAQAMEKDQLAQLLEEKDLLQKVQNEKIENLTRMLVTSSSLTLQQELKAKRKRRVTWCLGKINKMKNSNYADQFNIPTNITTKTHKLSINLLREIDESVCSESDVFSNTLDTLSEIE
notes: CENP-E, human, N-terminal truncation with the motor domain and the first predicted coiled-coil (334-401); Codon-optimised synthetic gene in pFastBac1; predicted monomer mass 109 kDa with the tags; also called truncated CENP-E483; source: Sf9 cells (baculovirus), purified (HisTrap HP, Superose 6 Increase); not shown: 2x tandem mNeonGreen, C-terminal, kept
In general, stoichiometry N refers to a count of units in the complex or per binding partner. With B1, the “stoichiometry N” value in series [1] was 2.

B2: truncated human CENP-E754 containing five predicted coiled-coils of the native stalk (domain or fragment, UniProt Q02224 1-754, looked up)
chain: MAEEGAVAVCVRVRPLNSREESLGETAQVYWKTDNNVIYQVDGSKSFNFDRVFHGNETTKNVYEEIAAPIIDSAIQGYNGTIFAYGQTASGKTYTMMGSEDHLGVIPRAIHDIFQKIKKFPDREFLLRVSYMEIYNETITDLLCGTQKMKPLIIREDVNRNVYVADLTEEVVYTSEMALKWITKGEKSRHYGETKMNQRSSRSHTIFRMILESREKGEPSNCEGSVKVSHLNLVDLAGSERAAQTGAAGVRLKEGCNINRSLFILGQVIKKLSDGQVGGFINYRDSKLTRILQNSLGGNAKTRIICTITPVSFDETLTALQFASTAKYMKNTPYVNEVSTDEALLKRYRKEIMDLKKQLEEVSLETRAQAMEKDQLAQLLEEKDLLQKVQNEKIENLTRMLVTSSSLTLQQELKAKRKRRVTWCLGKINKMKNSNYADQFNIPTNITTKTHKLSINLLREIDESVCSESDVFSNTLDTLSEIEWNPATKLLNQENIESELNSLRADYDNLVLDYEQLRTEKEEMELKLKEKNDLDEFEALERKTKKDQEMQLIHEISNLKNLVKHAEVYNQDLENELSSKVELLREKEDQIKKLQEYIDSQKLENIKMDLSYSLESIEDPKQMKQTLFDAETVALDAKRESAFLRSENLELKEKMKELATTYKQMENDIQLYQSQLEAKKKMQVDLEKELQSAFNEITKLTSLIDGKVPKDLLCNLELEGKITDLQKELNKEVEENEALREEVILLSELKSLPS
notes: CENP-E, human, N-terminal truncation with the motor domain and five predicted coiled-coils; source: Sf9 cells (baculovirus), purified (HisTrap HP, Superose 6 Increase); not shown: 2x tandem mNeonGreen, C-terminal, kept
B2: the binding result in series [2] was “binds”.
